Test results taken from US20250313634A1 (WUXI BIOLOGICS SHANGHAI, published 2025).

Legend:
Test in all cases: capture ELISA on coated 1.14.4; relative to silent alanine substitutions
[1] = biological target: T1, hPD-L1_ECD.His point mutant T181A (human, UniProt Q9NZQ7 19-238)
T1 construct: extracellular domain
Experimental: (§1) After interacting with the supernatant that contains quantified PD-L1 mutant or human/mouse PD-L1_ECD.His protein (Sino Biological, China), HRP conjugated anti-His antibody (1:5000; Rockland Immunochemicals, Pottstown, PA) was added as detection antibody. Absorbance was normalized according to the average of control mutants. After setting an additional cutoff to the binding fold change (<0.55), the final determined epitope residues were identified.
(§2) The observed binding reductions most probably resulted from the instability or even collapse of hPD-L1 structure after alanine substitutions. After setting an additional cutoff to the binding fold change (<0.55), the final determined epitope residues were listed in Table 3.

[2] = biological target: T2, hPD-L1_ECD.His point mutant V23A (human, UniProt Q9NZQ7 19-238)
T2 construct: extracellular domain
T2 sequence (Q9NZQ7 19-238 V23A): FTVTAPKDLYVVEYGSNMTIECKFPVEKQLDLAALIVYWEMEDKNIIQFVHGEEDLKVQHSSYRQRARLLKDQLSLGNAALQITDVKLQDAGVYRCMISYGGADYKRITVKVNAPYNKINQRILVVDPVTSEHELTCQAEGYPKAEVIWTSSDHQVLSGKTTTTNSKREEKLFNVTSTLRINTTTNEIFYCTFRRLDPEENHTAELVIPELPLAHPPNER
Experimental: as §1, §2

[3] = biological target: T3, hPD-L1_ECD.His point mutant L214A (human, UniProt Q9NZQ7 19-238)
T3 construct: extracellular domain
T3 sequence (Q9NZQ7 19-238 L214A): as the sequence (Q9NZQ7 19-238 V23A) above, with A5V, L196A counted along it
Experimental: as §1, §2

[4] = biological target: T4, hPD-L1_ECD.His point mutant T20A (human, UniProt Q9NZQ7 19-238)
T4 construct: extracellular domain
T4 sequence (Q9NZQ7 19-238 T20A): as the sequence (Q9NZQ7 19-238 V23A) above, with T2A, A5V counted along it
Experimental: as §1, §2

[5] = biological target: T5, hPD-L1_ECD.His point mutant Q66A (human, UniProt Q9NZQ7 19-238)
T5 construct: extracellular domain
T5 sequence (Q9NZQ7 19-238 Q66A): as the sequence (Q9NZQ7 19-238 V23A) above, with A5V, Q48A counted along it
Experimental: as §1, §2

[6] = biological target: T6, hPD-L1_ECD.His point mutant Q83A (human, UniProt Q9NZQ7 19-238)
T6 construct: extracellular domain
T6 sequence (Q9NZQ7 19-238 Q83A): as the sequence (Q9NZQ7 19-238 V23A) above, with A5V, Q65A counted along it
Experimental: as §1, §2

[7] = biological target: T7, hPD-L1_ECD.His point mutant T180A (human, UniProt Q9NZQ7 19-238)
T7 construct: extracellular domain
T7 sequence (Q9NZQ7 19-238 T180A): as the sequence (Q9NZQ7 19-238 V23A) above, with A5V, T162A counted along it
Experimental: as §1, §2

[8] = biological target: T8, hPD-L1_ECD.His point mutant A98G (human, UniProt Q9NZQ7 19-238)
T8 construct: extracellular domain
T8 sequence (Q9NZQ7 19-238 A98G): as the sequence (Q9NZQ7 19-238 V23A) above, with A5V, A80G counted along it
Experimental: as §1, §2

[9] = biological target: T9, hPD-L1_ECD.His point mutant Q100A (human, UniProt Q9NZQ7 19-238)
T9 construct: extracellular domain
T9 sequence (Q9NZQ7 19-238 Q100A): as the sequence (Q9NZQ7 19-238 V23A) above, with A5V, Q82A counted along it
Experimental: as §1, §2

[10] = biological target: T10, hPD-L1_ECD.His point mutant V147A (human, UniProt Q9NZQ7 19-238)
T10 construct: extracellular domain
T10 sequence (Q9NZQ7 19-238 V147A): as the sequence (Q9NZQ7 19-238 V23A) above, with A5V, V129A counted along it
Experimental: as §1, §2

[11] = biological target: T11, hPD-L1_ECD.His point mutant M36A (human, UniProt Q9NZQ7 19-238)
T11 construct: extracellular domain
T11 sequence (Q9NZQ7 19-238 M36A): as the sequence (Q9NZQ7 19-238 V23A) above, with A5V, M18A counted along it
Experimental: as §1, §2

[12] = biological target: T12, hPD-L1_ECD.His point mutant K41A (human, UniProt Q9NZQ7 19-238)
T12 construct: extracellular domain
T12 sequence (Q9NZQ7 19-238 K41A): as the sequence (Q9NZQ7 19-238 V23A) above, with A5V, K23A counted along it
Experimental: as §1, §2

[13] = biological target: T13, hPD-L1_ECD.His point mutant A121G (human, UniProt Q9NZQ7 19-238)
T13 construct: extracellular domain
T13 sequence (Q9NZQ7 19-238 A121G): as the sequence (Q9NZQ7 19-238 V23A) above, with A5V, A103G counted along it
Experimental: as §1, §2

[14] = biological target: T14, hPD-L1_ECD.His point mutant R113A (human, UniProt Q9NZQ7 19-238)
T14 construct: extracellular domain
T14 sequence (Q9NZQ7 19-238 R113A): as the sequence (Q9NZQ7 19-238 V23A) above, with A5V, R95A counted along it
Experimental: as §1, §2

[15] = biological target: T15, hPD-L1_ECD.His point mutant N63A (human, UniProt Q9NZQ7 19-238)
T15 construct: extracellular domain
T15 sequence (Q9NZQ7 19-238 N63A): as the sequence (Q9NZQ7 19-238 V23A) above, with A5V, N45A counted along it
Experimental: as §1, §2

[16] = biological target: T16, hPD-L1_ECD.His point mutant G70A (human, UniProt Q9NZQ7 19-238)
T16 construct: extracellular domain
T16 sequence (Q9NZQ7 19-238 G70A): as the sequence (Q9NZQ7 19-238 V23A) above, with A5V, G52A counted along it
Experimental: as §1, §2

[17] = biological target: T17, hPD-L1_ECD.His point mutant G95A (human, UniProt Q9NZQ7 19-238)
T17 construct: extracellular domain
T17 sequence (Q9NZQ7 19-238 G95A): as the sequence (Q9NZQ7 19-238 V23A) above, with A5V, G77A counted along it
Experimental: as §1, §2

[18] = biological target: T18, hPD-L1_ECD.His point mutant Q107A (human, UniProt Q9NZQ7 19-238)
T18 construct: extracellular domain
T18 sequence (Q9NZQ7 19-238 Q107A): as the sequence (Q9NZQ7 19-238 V23A) above, with A5V, Q89A counted along it
Experimental: as §1, §2

[19] = biological target: T19, hPD-L1_ECD.His point mutant E217A (human, UniProt Q9NZQ7 19-238)
T19 construct: extracellular domain
T19 sequence (Q9NZQ7 19-238 E217A): as the sequence (Q9NZQ7 19-238 V23A) above, with A5V, E199A counted along it
Experimental: as §1, §2

[20] = biological target: T20, hPD-L1_ECD.His point mutant G119A (human, UniProt Q9NZQ7 19-238)
T20 construct: extracellular domain
T20 sequence (Q9NZQ7 19-238 G119A): as the sequence (Q9NZQ7 19-238 V23A) above, with A5V, G101A counted along it
Experimental: as §1, §2

[21] = biological target: T21, hPD-L1_ECD.His point mutant E39A (human, UniProt Q9NZQ7 19-238)
T21 construct: extracellular domain
T21 sequence (Q9NZQ7 19-238 E39A): as the sequence (Q9NZQ7 19-238 V23A) above, with A5V, E21A counted along it
Experimental: as §1, §2

[22] = biological target: T22, hPD-L1_ECD.His point mutant Y56A (human, UniProt Q9NZQ7 19-238)
T22 construct: extracellular domain
T22 sequence (Q9NZQ7 19-238 Y56A): as the sequence (Q9NZQ7 19-238 V23A) above, with A5V, Y38A counted along it
Experimental: as §1, §2

[23] = biological target: T23, hPD-L1_ECD.His point mutant Y28A (human, UniProt Q9NZQ7 19-238)
T23 construct: extracellular domain
T23 sequence (Q9NZQ7 19-238 Y28A): as the sequence (Q9NZQ7 19-238 V23A) above, with A5V, Y10A counted along it
Experimental: as §1, §2

[24] = biological target: T24, hPD-L1_ECD.His point mutant D103A (human, UniProt Q9NZQ7 19-238)
T24 construct: extracellular domain
T24 sequence (Q9NZQ7 19-238 D103A): as the sequence (Q9NZQ7 19-238 V23A) above, with A5V, D85A counted along it
Experimental: as §1, §2

[25] = biological target: T25, hPD-L1_ECD.His point mutant T102A (human, UniProt Q9NZQ7 19-238)
T25 construct: extracellular domain
T25 sequence (Q9NZQ7 19-238 T102A): as the sequence (Q9NZQ7 19-238 V23A) above, with A5V, T84A counted along it
Experimental: as §1, §2

[26] = biological target: T26, hPD-L1_ECD.His point mutant Y32A (human, UniProt Q9NZQ7 19-238)
T26 construct: extracellular domain
T26 sequence (Q9NZQ7 19-238 Y32A): as the sequence (Q9NZQ7 19-238 V23A) above, with A5V, Y14A counted along it
Experimental: as §1, §2

T1 sequence (Q9NZQ7 19-238 T181A): as the sequence (Q9NZQ7 19-238 V23A) above, with A5V, T163A counted along it

B1: 1.14.4 (antibody, V domains shown)
VH: EVQLLESGGGLVQPGGSLRLSCAASGFTFSSYAMSWVRQAPGKGLEWVSGISGSGGFTYYADSVKGRFTISRDNSKNTLYLQMNSLRAEDTAVYYCAKPPRGYNYGPFDYWGQGTLVTVSS
VL: SYVLTQPPSVSVAPGQTARITCGGNNIGSKSVHWYQQKPGQAPVLVVYDDSDRPSGIPERFSGSNSGNTATLTISRVEAGDEADYYCQVWDSSSDHVVFGGGTKLTVL
notes: Fully human monoclonal antibody with a human constant region of IgG4 isotype
fold change [1]: 0.947 fold
fold change [2]: 0.948 fold
fold change [3]: 0.958 fold
fold change [4]: 0.974 fold
fold change [5]: 0.979 fold
fold change [6]: 0.982 fold
fold change [7]: 1 fold
fold change [8]: 1.01 fold
fold change [9]: 1.01 fold
fold change [10]: 1.02 fold
fold change [11]: 1.04 fold
fold change [12]: 1.07 fold
fold change [13]: 1.15 fold
fold change [14]: 0.161 fold
fold change [15]: 0.285 fold
fold change [16]: 0.602 fold
fold change [17]: 0.668 fold
fold change [18]: 0.792 fold
fold change [19]: 0.823 fold
fold change [20]: 0.825 fold
fold change [21]: 0.831 fold
fold change [22]: 0.84 fold
fold change [23]: 0.842 fold
fold change [24]: 0.863 fold
fold change [25]: 0.887 fold
fold change [26]: 0.935 fold
